Paper PMC8948244, “Pumilio protects Xbp1 mRNA from regulated Ire1-dependent decay”

Assays:
[1] = biological target: T1, hPUM1-HD (Pum-HD domain of human PUM1) (Homo sapiens, UniProt Q14671 828-1168); assay: EMSA; 100-300 nM protein, 10 nM probe; 10 mM Hepes/KOH pH 7.4, 50 mM KCl, 3 mM MgCl2, 1 mM EDTA, 0.1 mg/ml yeast tRNA, 2 mM DTT, 0.01% Tween-20, 0.2 U RNasin, 5% glycerol, 20 µl; 1 h on ice; 6% native gel, 0.5x TBE, room temperature; conditions: protein: recombinant; label: 3' biotin-TEG; single strand
T1 sequence (Q14671 828-1168): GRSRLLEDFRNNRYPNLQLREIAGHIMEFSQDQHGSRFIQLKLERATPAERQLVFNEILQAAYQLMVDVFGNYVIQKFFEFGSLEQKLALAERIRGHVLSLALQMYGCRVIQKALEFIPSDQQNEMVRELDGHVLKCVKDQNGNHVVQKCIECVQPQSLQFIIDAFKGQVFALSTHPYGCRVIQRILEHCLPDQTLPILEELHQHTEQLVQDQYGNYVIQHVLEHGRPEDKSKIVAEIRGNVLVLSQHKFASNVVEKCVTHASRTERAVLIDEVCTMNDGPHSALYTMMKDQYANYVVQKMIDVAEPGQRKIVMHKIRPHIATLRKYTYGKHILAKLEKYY

[2] = biological target: T1, hPUM1-HD (Pum-HD domain of human PUM1); assay: competition; EMSA; 5x, 10x, 50x excess (source data label: 25x) over biotin-labeled WT probe; no effect; 10 mM Hepes/KOH pH 7.4, 50 mM KCl, 3 mM MgCl2, 1 mM EDTA, 0.1 mg/ml yeast tRNA, 2 mM DTT, 0.01% Tween-20, 0.2 U RNasin, 5% glycerol, 20 µl; 1 h on ice; 6% native gel, 0.5x TBE, room temperature; conditions: protein: recombinant; single strand
[3] = biological target: T1, hPUM1-HD (Pum-HD domain of human PUM1); assay: competition; EMSA; 5x, 10x, 50x excess over biotin-labeled WT probe; shifted band disappeared; 10 mM Hepes/KOH pH 7.4, 50 mM KCl, 3 mM MgCl2, 1 mM EDTA, 0.1 mg/ml yeast tRNA, 2 mM DTT, 0.01% Tween-20, 0.2 U RNasin, 5% glycerol, 20 µl; 1 h on ice; 6% native gel, 0.5x TBE, room temperature; conditions: protein: recombinant; single strand

Question: Does GAUAGGCUGUACAUAAAUUCAUAAUCG (ssRNA) [pum1site-wt-3BioTEG (Xbp1 3'UTR PRE1)] bind [1]?
Answer: Result: binds

Question: Does GAUAGGCACAACAUAAAUUCAUAAUCG (ssRNA) [pum1site-mut (unlabeled competitor, UGUA to ACAA)] bind [2]?
Answer: Result: no binding

Question: Does GAUAGGCUGUACAUAAAUUCAUAAUCG (ssRNA) [pum1site-wt (unlabeled competitor)] bind [3]?
Answer: Result: binds
